# Experimental data: article PMC4530576
# Read-outs that look alike come from different tables or passages of the source.
# T1: Spen RRM domains (Spen RRMs) (UniProt Q96T58 335-620)
# T1 sequence: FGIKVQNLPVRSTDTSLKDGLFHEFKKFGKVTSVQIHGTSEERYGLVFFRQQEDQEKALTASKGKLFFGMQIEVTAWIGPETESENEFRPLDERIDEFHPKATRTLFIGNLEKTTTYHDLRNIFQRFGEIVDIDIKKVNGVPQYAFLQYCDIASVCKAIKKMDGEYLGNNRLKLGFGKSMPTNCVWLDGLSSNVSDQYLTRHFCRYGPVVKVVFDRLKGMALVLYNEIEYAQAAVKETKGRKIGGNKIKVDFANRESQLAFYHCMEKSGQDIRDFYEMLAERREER
# B1: H12-H13 SRA, synthetic (structured_RNA)
# RNA: GCAGGUAUGUGAUGACAUCAGCCGACGCCUGGCACUGCUGCAGGAACAGUGGGCUGGAGGAAAGUUGUCAAUACCUGU
# B2: XCR-XC dimer (Xist A-repeat dimer), synthetic (structured_RNA)
# RNA: UUGCCCAUCGGGGCCUCGGAUACCUGCUUUAAAUUGCCCAUCGGGGCCUCGGAUACCUGCUUUAC
# Legend:
# [1] = biological target: T1, Spen RRM domains (Spen RRMs); test: EMSA
# [2] = biological target: T1, Spen RRM domains (Spen RRMs); test: EMSA; remark: listed apart in the source
Binder,binding result [1],binding result [2]
B1,binds,–
B2,–,binds
